Results: patent publication WO2021212049A2

Key:
[1] = molecular target: untagged SARS-CoV-2 RBD expressed in E. coli BL21(DE3) and oxidatively refolded (RBDWT) (SARS-CoV-2) (UniProt P0DTC2); experiment: BLI, RBD expressed in E. coli
[2] = molecular target: Mammalian SARS-CoV2 RBD (residues 331-524) with C-terminal 6XHis Tag (SARS-CoV-2) (UniProt P0DTC2); experiment: ELISA on coated antigen, anti-human IgG-HRP
[3] = molecular target: untagged SARS-CoV-2 RBD expressed in E. coli BL21(DE3) and oxidatively refolded (RBDWT) (SARS-CoV-2) (UniProt P0DTC2); experiment: BLI, RBD expressed in E. coli, 1:1 Langmuir fit

With mAb 2B04 (antibody) the half-life [1] was 23.7 min, the minimum positive concentration [2] was < 5 µg/mL and the Kd [3] was 1.05 nM.
